Test results taken from US20100135951.

System: Ser90 mutant DDX3

GSK3
phosphorylation (32P incorporation): GSK3 fails to phosphorylate DDX3 with a point mutation at Ser90
